Several values for one entry are separate records, joined by “and”; a condition that tells them apart may be missing. Equal values may be shown once.
B1: Phosphocarrier protein HPr, P42013 (parent)
chain: MAEKTFKVVSDSGIHARPATILVQTASKFNSEIQLEYNGKTVNLKSIMGVMSLGIPKGATIKITAEGADAAEAMAALTDTLAKEGLAE
B2: V92L, O26594 (parent)
chain: MRCAFMKKYILIVMLALMVAGCVSEDGNYTYNEGVQDSNVDNPVNDSWTSDSQDKVNDTAEKKSSYEASGSCYHVVDGDTIDVEGVGRIRLVGVNTPERGQPGYREAKDFVKSMCLGRTVQLDIDDAKRHDRYGRVLAVVYVDGVNLNRELLRRGYAEVMYIPPSEFNPYGWT
B3: Osteomodulin, Q99983 (parent)
chain: MGFLSPIYVIFFFFGVKVHCQYETYQWDEDYDQEPDDDYQTGFPFRQNVDYGVPFHQYTLGCVSECFCPTNFPSSMYCDNRKLKTIPNIPMHIQQLYLQFNEIEAVTANSFINATHLKEINLSHNKIKSQKIDYGVFAKLPNLLQLHLEHNNLEEFPFPLPKSLERLLLGYNEISKLQTNAMDGLVNLTMLDLCYNYLHDSLLKDKIFAKMEKLMQLNLCSNRLESMPPGLPSSLMYLSLENNSISSIPEKYFDKLPKLHTLRMSHNKLQDIPYNIFNLPNIVELSVGHNKLKQAFYIPRNLEHLYLQNNEIEKMNLTVMCPSIDPLHYHHLTYIRVDQNKLKEPISSYIFFCFPHIHTIYYGEQRSTNGQTIQLKTQVFRRFPDDDDESEDHDDPDNAHESPEQEGAEGHFDLHYYENQE
B4: Alpha-lactalbumin, P00711 (parent)
chain: MMSFVSLLLVGILFHATQAEQLTKCEVFRELKDLKGYGGVSLPEWVCTTFHTSGYDTQAIVQNNDSTEYGLFQINNKIWCKDDQNPHSSNICNISCDKFLDDDLTDDIMCVKKILDKVGINYWLAHKALCSEKLDQWLCEKL
B5: Cytochrome c-552, P15452 (parent)
chain: MKKFLLVAVVGLAGITFANEQLAKQKGCMACHDLKAKKVGPAYADVAKKYAGRKDAVDYLAGKIKKGGSGVWGSVPMPPQNVTDAEAKQLAQWILSIK
B6: Thioredoxin, P80579 (parent)
chain: ATMTLTDANFQQAIQGDKPVLVDFWAAWCGPCRMMAPVLEEFAEAHADKVTVAKLNVDENPETTSQFGIMSIPTLILFKGGRPVKQLIGYQPKEQLEAQLADVLQ
B7: Collagen alpha-1(XVIII) chain, P39060 (parent)
chain: MAPYPCGCHILLLLFCCLAAARANLLNLNWLWFNNEDTSHAATTIPEPQGPLPVQPTADTTTHVTPRNGSTEPATAPGSPEPPSELLEDGQDTPTSAESPDAPEENIAGVGAEILNVAKGIRSFVQLWNDTVPTESLARAETLVLETPVGPLALAGPSSTPQENGTTLWPSRGIPSSPGAHTTEAGTLPAPTPSPPSLGRPWAPLTGPSVPPPSSGRASLSSLLGGAPPWGSLQDPDSQGLSPAAAAPSQQLQRPDVRLRTPLLHPLVMGSLGKHAAPSAFSSGLPGALSQVAVTTLTRDSGAWVSHVANSVGPGLANNSALLGADPEAPAGRCLPLPPSLPVCGHLGISRFWLPNHLHHESGEQVRAGARAWGGLLQTHCHPFLAWFFCLLLVPPCGSVPPPAPPPCCQFCEALQDACWSRLGGGRLPVACASLPTQEDGYCVLIGPAAERISEEVGLLQLLGDPPPQQVTQTDDPDVGLAYVFGPDANSGQVARYHFPSLFFRDFSLLFHIRPATEGPGVLFAITDSAQAMVLLGVKLSGVQDGHQDISLLYTEPGAGQTHTAASFRLPAFVGQWTHLALSVAGGFVALYVDCEEFQRMPLARSSRGLELEPGAGLFVAQAGGADPDKFQGVIAELKVRRDPQVSPMHCLDEEGDDSDGASGDSGSGLGDARELLREETGAALKPRLPAPPPVTTPPLAGGSSTEDSRSEEVEEQTTVASLGAQTLPGSDSVSTWDGSVRTPGGRVKEGGLKGQKGEPGVPGPPGRAGPPGSPCLPGPPGLPCPVSPLGPAGPALQTVPGPQGPPGPPGRDGTPGRDGEPGDPGEDGKPGDTGPQGFPGTPGDVGPKGDKGDPGVGERGPPGPQGPPGPPGPSFRHDKLTFIDMEGSGFGGDLEALRGPRGFPGPPGPPGVPGLPGEPGRFGVNSSDVPGPAGLPGVPGREGPPGFPGLPGPPGPPGREGPPGRTGQKGSLGEAGAPGHKGSKGAPGPAGARGESGLAGAPGPAGPPGPPGPPGPPGPGLPAGFDDMEGSGGPFWSTARSADGPQGPPGLPGLKGDPGVPGLPGAKGEVGADGVPGFPGLPGREGIAGPQGPKGDRGSRGEKGDPGKDGVGQPGLPGPPGPPGPVVYVSEQDGSVLSVPGPEGRPGFAGFPGPAGPKGNLGSKGERGSPGPKGEKGEPGSIFSPDGGALGPAQKGAKGEPGFRGPPGPYGRPGYKGEIGFPGRPGRPGMNGLKGEKGEPGDASLGFGMRGMPGPPGPPGPPGPPGTPVYDSNVFAESSRPGPPGLPGNQGPPGPKGAKGEVGPPGPPGQFPFDFLQLEAEMKGEKGDRGDAGQKGERGEPGGGGFFGSSLPGPPGPPGPPGPRGYPGIPGPKGESIRGQPGPPGPQGPPGIGYEGRQGPPGPPGPPGPPSFPGPHRQTISVPGPPGPPGPPGPPGTMGASSGVRLWATRQAMLGQVHEVPEGWLIFVAEQEELYVRVQNGFRKVQLEARTPLPRGTDNEVAALQPPVVQLHDSNPYPRREHPHPTARPWRADDILASPPRLPEPQPYPGAPHHSSYVHLRPARPTSPPAHSHRDFQPVLHLVALNSPLSGGMRGIRGADFQCFQQARAVGLAGTFRAFLSSRLQDLYSIVRRADRAAVPIVNLKDELLFPSWEALFSGSEGPLKPGARIFSFDGKDVLRHPTWPQKSVWHGSDPNGRRLTESYCETWRTEAPSATGQASSLLGGRLLGQSAASCHHAYIVLCIENSFMTASK

Variants of: B1
Conditions: Geobacillus stearothermophilus; pH 7; 25 °C; Urea; CD; sodium phosphate 10 mM; reversible: yes; structure 1Y4Y; whole UniProt chain shown

Row | Variant | ddG of mutation (higher = less stable) | denaturant m value | unfolding free energy
1 | F29W | 0.86 kcal/mol | 1.06 kcal/mol/M | 7.37 kcal/mol

Same assay, conditions: Geobacillus stearothermophilus; pH 7; Thermal; CD; sodium phosphate 10 mM; NaCl 750 mM; reversible: yes; structure 1Y4Y; whole UniProt chain shown

Row | Variant | Tm
2 | F29W | 85.3 °C

Same assay, conditions: Geobacillus stearothermophilus; pH 7; Thermal; CD; sodium phosphate 10 mM; reversible: yes; structure 1Y4Y; whole UniProt chain shown

Row | Variant | Tm | change of melting temperature, mutant - wild type (higher = more stable)
3 | F29W | 83.7 °C | -4.4 °C

Variants of: B2
Conditions: Methanothermobacter thermautotrophicus (strain ATCC 29096 / DSM 1053 / JCM 10044 / NBRC 100330 / Delta H); pH 7; 20 °C; GdnHCl; Fluorescence; Sodium phosphate sodium chloride 25 mM 100 mM; whole UniProt chain shown

Row | Variant | ddG of mutation (higher = less stable) | denaturant m value | denaturant midpoint (higher = more stable) | unfolding free energy
4 | V92L | 1.1 kcal/mol | 1.03 kcal/mol/M | 0.2 M | 1.3 kcal/mol

Variants of: B3
Conditions: Homo sapiens; pH 7.4; Thermal; DSC; PBS; transition: 2; structure 5YQ5; whole UniProt chain shown

Row | Variant | Tm
5 | E173R | 42.3 °C
6 | E225R | 41.8 °C
7 | D254R | 37 °C
8 | N278R | 38.5 °C
9 | E284R | 42.3 °C
10 | E284R E303R | 43.8 °C
11 | E303R | 43.3 °C

Variants of: B4
Conditions: Bos taurus; pH 8; Thermal; Fluorescence; HEPES 10 mM; CaCl2 1 mM; structure 1HFZ; whole UniProt chain shown

Row | Variant | Tm | change of melting temperature, mutant - wild type (higher = more stable)
12 | D106N | 31.4 °C | 6.8 °C

Variants of: B5
Conditions: Hydrogenobacter thermophilus (strain DSM 6534 / IAM 12695 / TK-6); pH 7; Thermal; CD; reversible: yes; structure 1YNR; whole UniProt chain shown

Row | Variant | change of melting temperature, mutant - wild type (higher = more stable)
13 | A91V | -7.5 °C and -2.9 °C

Variants of: B6
Conditions: Alicyclobacillus acidocaldarius subsp. acidocaldarius; pH 7; GdHCl; CD; Sodium phosphate 10 mM; reversible: yes; structure 1QUW; whole UniProt chain shown

Row | Variant | denaturant midpoint (higher = more stable)
14 | K18G R82E | 2.4 M
15 | R82E | 2.7 M
16 | D102X | 2 M

Same assay, conditions: Alicyclobacillus acidocaldarius subsp. acidocaldarius; pH 7; Thermal; CD; Sodium phosphate 10 mM; reversible: yes; structure 1QUW; whole UniProt chain shown

Row | Variant | Tm
17 | K18G R82E | 73.1 °C
18 | R82E | 81.5 °C and 81.4 °C
19 | K18G | 78.1 °C and 78.8 °C

Same assay, conditions: Alicyclobacillus acidocaldarius subsp. acidocaldarius; pH 7; Urea; CD; Sodium phosphate 10 mM; reversible: yes; structure 1QUW; whole UniProt chain shown

Row | Variant | denaturant midpoint (higher = more stable)
20 | K18G R82E | 4.6 M
21 | R82E | 5.5 M
22 | D102X | 4 M
23 | K18G | 5.2 M

Variants of: B7
Conditions: Homo sapiens; pH 7.4; 20 °C; GdnHCl; Fluorescence; Tris-HCl 5 mM; structure 1BNL; whole UniProt chain shown

Row | Variant | denaturant m value | denaturant midpoint (higher = more stable) | unfolding free energy
24 | D1647A | 2.86 kcal/mol/M and 1.57 kcal/mol/M | 1.79 M | 5.12 kcal/mol and 2.82 kcal/mol
